Source: patent US20240287172A1 (SCIRHOM, published 2024)

T1: hiR2-FL-T578A-T7 (human, UniProt Q6PJF5 1-856)
T1 sequence: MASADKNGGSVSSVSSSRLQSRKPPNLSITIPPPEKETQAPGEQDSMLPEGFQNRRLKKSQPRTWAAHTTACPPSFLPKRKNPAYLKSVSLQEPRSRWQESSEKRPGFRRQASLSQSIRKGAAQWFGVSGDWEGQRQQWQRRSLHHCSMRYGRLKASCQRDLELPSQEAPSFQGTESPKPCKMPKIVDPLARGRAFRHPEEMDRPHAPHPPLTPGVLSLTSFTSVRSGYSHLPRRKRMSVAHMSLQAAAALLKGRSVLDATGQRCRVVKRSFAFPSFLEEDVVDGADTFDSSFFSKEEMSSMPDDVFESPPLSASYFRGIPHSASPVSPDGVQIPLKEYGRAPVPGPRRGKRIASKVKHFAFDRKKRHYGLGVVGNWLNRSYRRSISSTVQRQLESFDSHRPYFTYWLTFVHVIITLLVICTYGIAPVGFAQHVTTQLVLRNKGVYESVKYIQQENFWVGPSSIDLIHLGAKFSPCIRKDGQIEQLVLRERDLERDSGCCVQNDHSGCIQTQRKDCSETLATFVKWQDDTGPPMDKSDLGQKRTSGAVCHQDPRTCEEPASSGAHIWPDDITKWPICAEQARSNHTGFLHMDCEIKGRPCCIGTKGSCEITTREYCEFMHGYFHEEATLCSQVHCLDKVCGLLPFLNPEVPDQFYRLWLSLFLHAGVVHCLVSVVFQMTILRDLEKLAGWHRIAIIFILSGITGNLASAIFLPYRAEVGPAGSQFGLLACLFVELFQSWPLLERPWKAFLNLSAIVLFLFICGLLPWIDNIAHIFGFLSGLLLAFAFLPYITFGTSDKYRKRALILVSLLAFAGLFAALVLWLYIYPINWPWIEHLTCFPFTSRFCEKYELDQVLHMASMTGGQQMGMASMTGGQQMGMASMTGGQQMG

T2: hiR2-FL-Q510A-T7 (human, UniProt Q6PJF5 1-856)
T2 construct: reduced surface expression reported
T2 sequence: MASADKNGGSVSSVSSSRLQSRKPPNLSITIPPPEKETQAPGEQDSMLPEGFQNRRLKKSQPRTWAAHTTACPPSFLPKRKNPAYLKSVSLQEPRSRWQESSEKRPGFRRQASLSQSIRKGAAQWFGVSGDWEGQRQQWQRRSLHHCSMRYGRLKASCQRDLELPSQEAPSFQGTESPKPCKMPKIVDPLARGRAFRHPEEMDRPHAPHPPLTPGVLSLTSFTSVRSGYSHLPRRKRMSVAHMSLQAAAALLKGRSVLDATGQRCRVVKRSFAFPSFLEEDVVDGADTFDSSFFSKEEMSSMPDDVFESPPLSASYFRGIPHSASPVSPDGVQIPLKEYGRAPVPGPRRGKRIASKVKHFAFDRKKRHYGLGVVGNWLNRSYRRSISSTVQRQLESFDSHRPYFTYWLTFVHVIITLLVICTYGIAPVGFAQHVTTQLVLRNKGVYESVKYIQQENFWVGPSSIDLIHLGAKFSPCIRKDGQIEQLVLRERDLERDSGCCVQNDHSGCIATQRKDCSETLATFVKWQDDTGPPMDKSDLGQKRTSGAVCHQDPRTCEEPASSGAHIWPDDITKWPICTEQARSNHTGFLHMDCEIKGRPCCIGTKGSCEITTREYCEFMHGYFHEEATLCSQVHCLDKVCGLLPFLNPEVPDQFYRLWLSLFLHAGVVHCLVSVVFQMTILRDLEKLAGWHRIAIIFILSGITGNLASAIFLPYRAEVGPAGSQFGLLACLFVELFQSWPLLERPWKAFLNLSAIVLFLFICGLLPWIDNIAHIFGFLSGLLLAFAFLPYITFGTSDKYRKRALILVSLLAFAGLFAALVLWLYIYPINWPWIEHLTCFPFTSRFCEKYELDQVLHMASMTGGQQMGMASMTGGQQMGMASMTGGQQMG

B1: antibody 3 (antibody, V domains shown)
VH: QVTLKESGPGILQPSQTLSLTCSFSGFSLTTFAMGIGWVRQPSGKGLEWLAHIWWDGEKYNNPVLKSRLTISKDTSKNQVFLRIANVDTPDTATYYCARISSIYYIIDNWGQGTSVTVSS
VL: DIVLTQSPATLSVTPGHSVSLSCRASQSISNNLHWYQKKSHESPRLLIKYVSQSISGIPSRFSGSGSGTDFTLSINSVETEDFGMYFCQQSYNWPLTFGAGTKLELK
notes: mouse IgG, kappa light chain; also called clone #3; purified antibody 3
B2: antibody 50 (antibody, V domains shown)
VH: QVQLQQSGAELVRPGASVKVSCKASGYAFSNYLIEWVKQRPGQGLEWIGVINPGSGFTKYNEKFKGKATLTADKSSSTAYMQLSSLTSEDSAVYFCARGLYRAMDYWGQGTSVTVSS
VL: DIQMTQSPASQSASLGESVTITCLASQTIGTWLAWYQQKPGKSPQLLIYAAASLADGVPSRFSGGGSGTKFSFKISSLQAEDFVNYYCQQIYSTPYTFGGGTKLEIK
notes: mouse IgG, kappa light chain; also called clone #50; purified antibody 50

Columns and labels:
hiR2-FL-T578A-T7 = biological target: T1, hiR2-FL-T578A-T7; experiment: FACS on MEF-DKO cells expressing the variant, 3 µg/ml antibody
Procedure, shortened: (§1)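 Flow cytometry read-out of binding to variant-expressing cells after two-step staining on ice: 1 h with antibody at 3 μg/ml, then 1 h with PE-labelled goat anti-mouse IgG F(ab′)2 diluted 1:100. Controls received FACS buffer without primary antibody.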

hiR2-FL-Q510A-T7 = biological target: T2, hiR2-FL-Q510A-T7; experiment: as above
Procedure, shortened: as §1

Binder | loss of binding vs wild type (hiR2-FL-T578A-T7) | loss of binding vs wild type (hiR2-FL-Q510A-T7)
B1 | ≥ 30% | –
B2 | – | ≥ 30%
